The values that follow come from patent publication US20250250357A1 (NANJING ZAIMING PHARMACEUTICAL, published 2025).

The target in experiment [1] is T1, human MSLN-FL-his protein (human, UniProt Q13421 296-580).
T1 construct: Made in HEK293E cells, purified on nickel column; it is put last here; also called human MSLN full-length protein; hMSLN-FL-his; not shown: His tag
Briefly: ELISA on coated antigen, antibody 0.1 nM.

Experiment [2] addresses T1, human MSLN-FL-his protein. Kind of experiment: ELISA on coated antigen, antibody 0.01 nM. In general terms: In an ELISA, binding on a coated surface is turned into a signal by an enzyme label.
Procedure: (§1) The plate was sealed with a plastic film and incubated at 4° C. overnight. The next day, the plate was washed twice with PBST, and a blocking buffer [PBS+2% (w/w) BSA] was added for blocking at room temperature for 2 h. The blocking buffer was discarded, and a chimeric antibody or negative control antibody serially diluted from 100 nM was added at 50 μL/well. After incubation at 37° C. for 2 h, the plate was washed 3 times with PBST. […] After incubation at 37° C. for 2 h, the plate was washed 5 times with PBST. A TMB substrate was added at 50 μL/well for incubation at room temperature for 5-10 min, and then a stop solution (1.0 N HCl) was added at 50 μL/well.
For experiment [3], the target named is T1, human MSLN-FL-his protein. Briefly: ELISA on coated antigen, antibody 0.0001 nM.
Procedure: as §1
For experiment [4], the target named is T1, human MSLN-FL-his protein. Kind of experiment: ELISA on coated antigen, antibody 100 nM.
Procedure: as §1
Experiment [5] concerns the target T1, human MSLN-FL-his protein. Briefly: ELISA on coated antigen, no antibody (blank, column 'none').
Procedure: as §1
Experiment [6] has as its target T1, human MSLN-FL-his protein. Briefly: ELISA on coated antigen, antibody 1 nM.
Procedure: as §1
The target in experiment [7] is T1, human MSLN-FL-his protein. Kind of experiment: ELISA on coated antigen, antibody 0.001 nM.
Procedure: as §1
In experiment [8] the target is T1, human MSLN-FL-his protein. Kind of experiment: ELISA on coated antigen, antibody 10 nM.
Procedure: as §1

T1 sequence (Q13421 other isoform, or with tags, fused parts or gaps): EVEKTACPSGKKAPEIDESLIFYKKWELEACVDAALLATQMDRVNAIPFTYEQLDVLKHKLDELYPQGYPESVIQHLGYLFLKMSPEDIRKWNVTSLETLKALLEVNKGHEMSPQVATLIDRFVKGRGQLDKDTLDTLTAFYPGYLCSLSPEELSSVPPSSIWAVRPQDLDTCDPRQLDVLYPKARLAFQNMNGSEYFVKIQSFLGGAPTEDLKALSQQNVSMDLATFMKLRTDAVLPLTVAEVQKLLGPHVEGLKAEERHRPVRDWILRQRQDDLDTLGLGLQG

B1: S009-F8-32.3 (antibody, human IgG1, kappa, V domains shown)
VH: QVQLKESGPGLVAPSQSLSITCTVSGFSLSSYAISWVRQPPGKGLEWLGVIWTGGGTNYNSALKSRLSISKDNSKSQVFLKMNSLQTDDTARFYCARNNYGRLDYAMDYWGQGTSVTVSS
VL: DVVMTQTPLSLPVSLGDQASISCRSSQSLVHGNGNTYLHWYLQKPGQSPKLLIYKVSNRFSGVPDRFSGSGSGTDFTLKISRVETEDLGVYFCSQSTHVPFTFGSGTKLEIKR
notes: Human-murine chimeric antibody, human IgG1 heavy and kappa light constant regions
For the molecule B1, the OD450 in experiment [1] was determined as 1.63 OD; in experiment [2], 0.48 OD; in experiment [3], 0.07 OD; in experiment [4], 3.03 OD; in experiment [5] it was 0.04 OD; in experiment [6], 2.64 OD. Also, the values for the OD450 in experiment [7] and in experiment [8] were 0.11 OD and 2.85 OD, respectively.

B2: S009-F8-29.1 (antibody, human IgG1, kappa, V domains shown)
VH: QVQLQQSGAELARPGASVKMSCKASGYTFISYTMHWVKQRPGQGLEWIGYINPSSGYTKYNQKFKDKATLTADKSSSTAYMQLNSLTSEDSAVYYCARYYSNPDYYAMDYWGQGTSVTVSS
VL: QIVLTQSPAIMSASPGEKVTITCSASSSVSYMHWFQQKPGTSPKLWIYSTSNLASGVPARFSGSGSGTSYSLTISRMEAEDAATYYCQQRSSYPLTFGGGTKLELKR
notes: as for B1
Take B2: the OD450 in experiment [1] stood at 1.71 OD; in experiment [2], 0.48 OD; in experiment [3] it was 0.07 OD; in experiment [4], 3.07 OD; in experiment [5], 0.18 OD; in experiment [6], 2.9 OD. Besides, the OD450 is 0.13 OD in experiment [7] and 3.2 OD in experiment [8].

B3: S009-F8-24.14 (antibody, human IgG1, kappa, V domains shown)
VH: EFQLQQSGPELVKPGASVKISCKASGYSFTDYNMNWVKLSNGKSLEWIGVIIPNYGTSSYNQKFKGKATLTVDQSSSTAYMQLNSLTSEDSAVYYCARWDNYYGSSLDYWGQGTTLTVSS
VL: DIVMTQSQKFMSTTVGDRVSITCKASQNVGTAVAWYQQKPGQSPKLLIYSASNRYTGVPDRFTGSGSGTDFILTISNMQSEDLADYFCQQYSSYPLTFGAGTKLELKR
notes: as for B1
Take B3: the OD450 was 2.02 OD in experiment [1]; 0.75 OD in experiment [2]; 0.1 OD in experiment [3]; 2.91 OD in experiment [4]; 0.06 OD in experiment [5]; 2.77 OD in experiment [6]. For the same molecule, the OD450 was found to be 0.18 OD in experiment [7] and 2.98 OD in experiment [8].

B4: S009-F8-27.1 (antibody, human IgG1, kappa, V domains shown)
VH: EVQLVESGGGLVKPGGSLKLSCAASGFTFSSYAMSWVRQTPEKRLEWVATISDGGNYTYYPDNVKGRFTISRDNAKNNLYLQMSHLKSEDTAMYYCAGDRGYPYAMDSWGQGTSVTVSS
VL: NIMMTQSPSSLAVSAGEKVTMSCKSSQSVLYSSNQKNYLAWYQQKPGQSPKLLIYWASTRESGVPDRFTGSGSGTDFTLTISNVHAEDLAVYYCHQYLSSLTFGAGTKLELKR
notes: as for B1
B4: the OD450 is 1.34 OD in experiment [1]; 0.31 OD in experiment [2]; 0.05 OD in experiment [3]; 2.5 OD in experiment [4]; 0.04 OD in experiment [5]; 2.23 OD in experiment [6]. In addition, the OD450 is 0.08 OD in experiment [7] and 2.37 OD in experiment [8].

B5: S009-F8-28.23 (antibody, human IgG1, kappa, V domains shown)
VH: EVQLVESGGDLVKPGGSLKLSCAASGFTFSSYAMSWVRQTPEKRLEWVATISDGGSYTYYPDNVEGRFTISRDNAKNNLYLQMSHLKSEDTAMYYCAGDRGYSYALDYWGQGTSVTVSS
VL: NIMMTQSPSSLAVSAGEKVTMSCKSSQSVLYSSNQKNYLAWYQQKPGQSPKLLIYWASTRESGVPDRFTGSGSGTDFTLTISSVQAEDLAVYYCHQYLSSLTFGAGTKLELKR
notes: as for B1
Consider B5, for which the OD450 stood at 1.04 OD in experiment [1]; 0.24 OD in experiment [2]; 0.05 OD in experiment [3]; 3 OD in experiment [4]; 0.05 OD in experiment [5]; 2.63 OD in experiment [6]. For the same molecule, the OD450 stood at 0.08 OD in experiment [7] and 3.13 OD in experiment [8].

B6: S009-F8-31.22 (antibody, human IgG1, kappa, V domains shown)
VH: EVQLVESGGDLVKPGGSLKLSCAASGFTFSTYGMSWVRQTPDKRLEWVATISSGGSYTYYPDSLKGRFTISRDNAKNTLYLQMSSLKSEDTAMYYCARHEGYYYGKDYWGQGTTLTVSS
VL: DIVLTQSPATLSVTPGDSVSLSCRASHSISNNLHWYQQKSHESPRLLIKYASQSISGIPSKFSGSGSGTDFTLSINSVETEDFGMYFCQQTNSWPLTFGAGTKLELKR
notes: as for B1
On to B6, for which the OD450 is 2.19 OD in experiment [1]; 0.85 OD in experiment [2]; 0.08 OD in experiment [3]; 2.66 OD in experiment [4]; 0.08 OD in experiment [5]; 2.53 OD in experiment [6]. In addition, the results for the OD450 in experiment [7] and in experiment [8] were 0.2 OD and 2.56 OD, respectively.

B7: S009-F8-36.12 (antibody, human IgG1, kappa, V domains shown)
VH: EVQLQQSGPELVKPGASVKISCKASGYTFTDYYMNWVKQSHGKSLEWIGDINPNNGGTSYNQKFKGKATLTVDKSSSTAYMELRSLTSEDSAVYYCASWGYGSSSRGYFDYWGQGTTLTVSS
VL: QIVLSQSPAILSASPGEKVTMTCRASSSVSYMHWYQQKPGSSPKPWIYATSNLASGVPARFSGSGSGTSYSLTISRVEAEDAATYYCQQWSSNPWTFGGGTKLEIKR
notes: as for B1
In the case of B7, the OD450 in experiment [1] was found to be 0.73 OD; in experiment [2] it was 0.18 OD; in experiment [3], 0.05 OD; in experiment [4] it was 2.71 OD; in experiment [5], 0.04 OD; in experiment [6] it was 2.21 OD. Also, the OD450 in experiment [7] is 0.06 OD; in experiment [8] it was 2.69 OD.

B8: S009-F8-33.12 (antibody, human IgG1, kappa, V domains shown)
VH: EVQLQQSGAELVKPGASVKLSCTASAFNIKDYYMHWVKQRTEQGLEWIGRIDPEDGETKYAPKFQGKATITADTSSNTAYLQLSSLTSEDTAVYYCASGSGTGAMDYWGQGTSVTVSS
VL: DIVMTQSQKFMSTSVGDRVSITCKASQNVRTAVGWYQQKPGQSPKALIYLASNRHTGVPDRFTGSGSGTDFTLTISNVQSEDLADYFCLQHWNSPYTFGGGTKLVIKR
notes: as for B1
Consider B8, for which the OD450 was 1.61 OD in experiment [1]; 0.43 OD in experiment [2]; 0.05 OD in experiment [3]; 2.95 OD in experiment [4]; 0.06 OD in experiment [5]; 2.57 OD in experiment [6]. The results for the OD450 in experiment [7] and in experiment [8] were 0.11 OD and 2.92 OD, respectively.
